Source: US20260327294 (published 2026)
Residue numbers refer to the chain shown, from its start.

B1: F6-207 (antibody, V domains shown)
VH: QITLKESGPTLLKPTQTLTLTCTFSGFSLTTTGVAVGWVRQPPGKALEWLALIYWDDDKRYSPSLKSRVTITKDTSKNQVLLAMTDMDPVDTATYYCAHFDYGDPEVVALFEYSYYMDVWGKGITVTVSS
VL: QSVLTQPPSVSGTPGQRVTISCSGSSSNIGSNYVYWYQHLPGTAPKLLIYTNNRRPSGVPDRFSGSKSGTSASLAVSGLRSEDEADYFCAVWDDSVGGHWVFGGGTKLTVL
B2: F6-153 (antibody, V domains shown)
VH: QVQLQQWGAGLLRPSETLSLTCAVSGVSLSGDYLTWIRQTPGKGLEWIGEINHSGSTNYNPSLKSRVTISVETSKNHFSLKMRSVTAADSALYYCARGWEYCHGTTCYSKAFDIWGQGTLVTVSS
VL: DIQMTQSPSSLSASVGDRVTITCQASQDISNYLIWYQQKPGRAPKLLIFDASKLEKGVPPRFSGSGSGTYFTFTISSLQPEDFATYYCQQFHNLPVTFGGGTKLETK
B3: F6-227 (antibody, V domains shown)
VH: QVQLQQSGPGLVKPSETLSLACSVSGGSMSDFYWSWIRQSPGTGLEWIGYVHHSGKVNYNPSLKARVTMSLDTSKYLLSLNLASMTAADSAVYYCAATSAFVDSSSYSPPYFDFWGQGTLITVSS
VL: DIQLTQSPSSLSASVGDRVTITCQASHDITNYLNWYQQTPGKAPRLLIYVATNLETGVPSRFSGSGSGTHFTLTISSLQPEDSATYYCQQYDNLPITFGGGTRVEIR
B4: F6-208 (antibody, V domains shown)
VH: QVQLEESGGGVVQPGTSLRLSCSSSGVTRNTYAVHWVRQVPGKGLEWLAATSYDGTSKYYPENGHGRVSISKEYSTNMVYLEIYNLRPEDTAVYFCAKGPQGIYSYIGYFYYMDVWGKGTTVTVSS
VL: QSALTQPASVSGSPGQSITLSCTGSRDDVGDYDYVSWYQHHPGKAPRLIIYDVTSRPSGVSPRFSGSKSGNTASLTISGLQADDEADYYCNSYTSSNSVVFGGGTKVTVL
B5: F6-61 (antibody, V domains shown)
VH: QVTLRQSGPALVKPTQTLTLTCTFSGFSLSTRGMCVNWIRQPPGKALEWLARIDWDDDKYYTTSLKTRLTISKDTAKNHVVLSMTNMDPVDTATYYCARIRCYDYVWGDDEVFDIWGQGTMVSVSS
VL: QSVLTQPPSASGTPGQSVTISCSGSTSNIGSNNVNWYQQLPGAAPKLVIHTNDQRPSRVPDRFSGSTSGTSASLAISGLQSEDEADYYCAAWDDSLNGLLFGGGTKLTVL
B6: F6-215 (antibody, V domains shown)
VH: QEQSVQSGPEVKKPGASVKVSCRASEFTFSTDFIHWVRQAPGQGLEWMGRITPSDGTTTYAPKFQGRVAVTRDPSTKNVYIQLTRLKSEDTAVYYCVAYDRATTSAGAGATDIWGQGTLVTVSS
VL: DIVMTQSPLSLPVTPGEPASISCRSSQSLLHGDGYNYLDWYLQRPGRSPQLLIYLGSHRASGVPDRFSGSGSGTDFTLRISRVEAEDVGIYYCMQGLQTPFTFGPGTKVDIK
B7: F6-213 (antibody, V domains shown)
VH: QEQLVQSGAEVKRPGTSVKVSCKASGYAFTDYSIHWVRQAPGVGLEWMGKIYPGDGHALYAQNFQGRVTLTRDTSTASVYMELRSLRSQDTAVYYCVAYERATTLAGAGASDIWGQGTMVTVSS
VL: B6 VL with H31Q, G32S, L38M, R44K, E84K, G96S, T99S
B8: F6-70 (antibody, V domains shown)
VH: QVQLVESGGGVVQPGRSLRLSCAASGFTFKNFAMHWVRQAPGKGLEWVAAVSYDGTSKYQADSVKGRFTISRDNSKNTLYLQMNSLRAEDTAVYYCARVESSGSGHYSYLGYFYCMDVWGKGTTVTVSS
VL: QSALTQPASVSASPGQSITISCTGTRNDVGGYEYVSWYQQHPDKAPKLMIFDVSNRPSGVSNRFSGSKSGNTASLTISGLQAEDEADYYCSSYTINNTLVFGGGTKVTVL
B9: F6-124 (antibody, V domains shown)
VH: QVQLVQSGTEVKKPGASVKISCKASGYTFTGNAINWVRQAPGQGLEWLGWISVNNGNTKYVQKFQGRVTMTTDTSTSTAYMELRSLGSDDTAVYYCAREVVNYGSGSLNFDSWGQGTLVTVSS
VL: SYELTQPPSVSVSPGQTVSISCSGDKLGNDYVSWYQQKPGQSPVLVIYEDSKRPSGIPERFSGSNSGNTATLTISGTQAMDESDYYCQAWDGSTVIFGGGTKLTVL
B10: F6-133 (antibody, V domains shown)
VH: EVQVVESGGGLVQPGGSLRLSCAASSFSVTGSYMTWVRQAPGKGLESVSLIYSTGSTYYADSVKGRFVISRDDSKNILFLQMNNLRVEDTGVYFCARLGPAGGSWSWEFYGLDVWGQGTTVTVFS
VL: CVQMTQSPSFLSASVGDRVTISCRASQGTTSYLAWYQQKPGKAPKLLIYGVSTLQTGVPSRFSGSGSGTDFTLTISNLQPEDFATYYCQQVNIFPYTFGPGTKVEIK
B11: F6-172 (antibody, V domains shown)
VH: EEQLVESGGGLVQPGGSLKLSCAASGFILSDSTVHWVRQASGRGLEWVGRIANGYATSYAASVKGRFTISTDDSGNTAYLEMNSLKTEDTAVYYCTSRSVVVTDVGAGRDDYWGQGTLVTVSS
VL: DIVMTQSPLSLPVTPGEPASISCRSSQSLLHRNGYNYLDWYLQKPGQSPQLLIWLGSNRASGVPDRFSGSGSGTDFTLTISRVEAEDVGVYYCMQDLQTPPTFGGGTKVEIM
B12: F6-210 (antibody, V domains shown)
VH: QERLAQSGTEVKKPGASVKVSCRALGYTFSDYSIHWVRQAPRQGLEWMGKINTSGGTTTYAQKFQARVTLTSDTSTSTASMELSSLKIEDTAVYYCVAYERATTLAGAGASDIWGQGTLVTVSS
VL: DIVMTQSPLSLPVTPGEPASISCRSSQSLLHSDGYNYLDWYLQKPGQSPHLLIYLGSNRASGVPDRFSGSGSGTDFTLKITRVEPEDVGVYYCMQSLQTPFTFGPGTKVDVK
B13: F6-132 (antibody, V domains shown)
VH: QEQSVQSGAEVKKPGASVKVSCRASEFTFSTDFIHWVRQAPGQGLEWMGRITPSDGTTTYAQKFQGRVTMTRDPSTNTVYIELRRLKSEDTAVYYCVAYDRVTTSAGTGASDIWGQGTMVTVSS
VL: B6 VL with R44K
B14: F6-115 (antibody, V domains shown)
VH: QLQLHQRGAGLLKPSETLSLTCDVYGGSVSDDEWTWIRQSPGKGLEWIGQIDRTGSSNYNPSLRSRVTISPDTSNNQFSMSLTSVTAADTALYFCARGGLVVTDVGRGWDAFDVWGQGTMVTVSS
VL: DIQMTQSPSSVSASVGDRITITCRASQHINNWLAWYQQKPGEAPKLLIYAASTLQRGVPSRFSGSGSGTRFTLTITSLQPEDFASYFCQQGDSFPLTFGGGTKVEIK
B15: F6-141 (antibody, V domains shown)
VH: QVQLAQSGAEVRRPGTSVKVSCRSSAYDFIDDSIHWVRQAPGQGLEWMGRIDPSGDTTTYAPQFQVRITLTRDTSTSTASMELNRLTSQDTAMYYCVAYERATTLAGVGASDVWGQGTWVTVSS
VL: DIVMTQSPLSLSVTPGEPASISCRSSQSLLYRDGYNYLDWYLQKPGQSPQLLLYFASYRASGVPDRFSGSGSGTDFTLTITRVEPEDVGIYYCMQSLQTPFTFGPGTKLDFK

Columns and labels:
RSV A2 pre-F [1] = target: RSV A2 pre-F (RSV A2); test: BLI
RSV A2 pre-F [2] = target: RSV A2 pre-F (RSV A2); test: ELISA

Row | Binder | Kd (RSV A2 pre-F [1]) [nM] | EC50 (RSV A2 pre-F [2]) [µg/mL]
1 | B1 | 0.291 | 0.0354
2 | B2 | < 0.001 | 0.018
3 | B3 | 0.169 | 0.0226
4 | B4 | 0.0533 | 0.0198
5 | B5 | 3.25 | 0.0613
6 | B6 | 0.815 | 0.0289
7 | B7 | 1.29 | 0.0298
8 | B8 | 2.11 | 0.0585
9 | B9 | < 0.001 | 0.0147
10 | B10 | 0.0669 | 0.0494
11 | B11 | < 0.001 | 0.0183
12 | B12 | 0.106 | 0.0281
13 | B13 | < 0.001 | 0.0167
14 | B14 | < 0.001 | 0.0117
15 | B15 | < 0.001 | 0.0166
